The values below come from patent US20120195909A1 (BIONOVION HOLDING B V, published 2012).

The target of assay [1] is FLAG-hAPRIL (secreted form, supernatant of 293T cells transfected with pCR3-hAPRIL) (human) (UniProt O75888). Put plainly: ELISA, FLAG-hAPRIL captured by coated anti-FLAG polyclonal antibody.
In assay [2] the target is T1, mouse APRIL (mouse, UniProt Q9D777 96-241, limits assumed).
T1 sequence (looked up): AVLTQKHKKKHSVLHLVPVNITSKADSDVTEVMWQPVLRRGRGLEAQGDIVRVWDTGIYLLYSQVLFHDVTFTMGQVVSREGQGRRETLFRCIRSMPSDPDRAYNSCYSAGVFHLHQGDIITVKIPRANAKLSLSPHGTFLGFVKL
Put plainly: BIAcore.

Assay [3] deals with T2, FLAG-hAPRIL (secreted form, supernatant of 293T cells transfected with pCR3-hAPRIL) (human, UniProt O75888 110-250, limits assumed).
T2 construct: Used as cell supernatant; also called FLAG-APRIL; soluble APRIL in conditioned medium; not shown: FLAG tag
T2 sequence (looked up): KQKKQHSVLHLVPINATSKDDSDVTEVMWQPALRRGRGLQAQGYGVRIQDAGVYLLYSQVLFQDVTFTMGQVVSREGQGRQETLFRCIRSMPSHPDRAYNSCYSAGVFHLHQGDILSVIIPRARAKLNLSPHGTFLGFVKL
Put plainly: ELISA, FLAG-hAPRIL captured by coated anti-FLAG polyclonal antibody. Here is the method: Protein-based ELISA experiments using purified hAPRIL.01A and hAPRIL.03A antibodies were performed to determine apparent binding affinities (reported as EC₅₀ values). Binding was compared to mouse anti-hAPRIL IgG1 Aprily-5 (Alexis). Maxisorp 96-well immunoplates (Nunc) were coated with either rabbit anti-FLAG polyclonal antibody (Sigma) or BCMA-Fc (R&D Systems) at 50 ng/well in PBS overnight at 4° C. and blocked with 10% Goat serum/PBST for 1 hour at RT. Plates were washed with PBST 3 times and incubated with supernatant (1:4 in PBS) containing FLAG-hAPRIL for 1 hour at RT. Plates were again washed with PBST 3 times and incubated with hAPRIL.01A, hAPRIL.03A, and Aprily-5 antibodies (10 μg/ml high test with 10-fold dilutions in triplicates) for 1 h at RT. After three washes with PBST, bound antibodies were detected with goat anti-mouse IgG-HRP (1:2,000) (Southern Biotechnology) for 1 hour at RT. Plate was washed three times with PBST, and APRIL-reactivity was visualized with OptiEIA TMB substrate (Becton Dickinson). The concentration for half-maximal binding is reported as a measure of relative binding affinity. When FLAG-hAPRIL was captured by the anti-FLAG antibody (FIG. 2A), EC₅₀ values for hAPRIL.01A, hAPRIL.03A and Aprily-5 were calculated as 2.2, 1.4, and 1.7 nM, respectively. […] In contrast, binding of hAPRIL.03A to the APRIL-BCMA complex was observed.

The target in assay [4] is T2, FLAG-hAPRIL (secreted form, supernatant …). Put plainly: blocking ELISA: antibody pre-incubated with FLAG-hAPRIL, binding to coated BCMA-Fc (competitor) detected. Here is the method:
(§1) Blocking abilities of hAPRIL.01A and hAPRIL.03A were confirmed using purified antibodies. Maxisorp 96-well plates were coated with either BCMA-Fc (R&D Systems) or TACI-Fc (R&D Systems) at 50 ng/well overnight at 4° C. and blocked with 10% Goat serum/PBST for 1 hour at RT. FLAG-hAPRIL containing supernatants were pre-incubated with hAPRIL.01A, hAPRIL.03A, and Aprily-5 antibodies (10 μg/ml high test with 10-fold dilutions in triplicates) for 1 h at RT. Plates were washed with PBST 3 times, and bound FLAG-hAPRIL was detected by incubation with 1 μg/ml anti-FLAG BioM2-biotin antibody (Sigma) and 1:2,000 Streptavidin-HRP (Southern Biotechnology) for 1 hour each at RT. After the final PBST wash, APRIL-bound BCMA-Fc was visualized with OptiEIA TMB substrate (BD Biosciences). […] The concentration of half-maximum inhibition (IC₅₀) was determined for hAPRIL.01A as 1.2 and 0.4 nM for BCMA-Fc and TACI-Fc, respectively. The IC₅₀ for hAPRIL.03A to TACI-Fc was determined as 1.3 nM.

The target is the same in assay [5]. Put plainly: blocking ELISA: antibody pre-incubated with FLAG-hAPRIL, binding to coated TACI-Fc (competitor) detected.
Assay [6] addresses T3, Recombinant human APRIL (R&D Systems) (human, UniProt O75888 105-250).
T3 construct: Bought protein; also called recombinant APRIL
T3 sequence (looked up): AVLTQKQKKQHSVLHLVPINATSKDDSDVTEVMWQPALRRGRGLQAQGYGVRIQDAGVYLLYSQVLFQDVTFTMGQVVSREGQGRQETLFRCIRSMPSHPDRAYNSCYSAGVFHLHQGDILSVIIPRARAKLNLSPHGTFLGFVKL
Put plainly: bio-light interferometry (Octet), antibody amine-coupled to the biosensor, APRIL at 1 and 2 µg/ml, 1:1 global fit. Here is the method: (§2) To further characterize the binding characteristics of the antibodies, each was profiled using bio-light interferometry on the Octet system (ForteBio, Menlo Park, Calif.) to elucidate binding kinetics and calculate equilibrium binding constants. This assay was performed by coupling purified hAPRIL.01A and hAPRIL.03A antibodies to amine-reactive biosensors (Fortebio) using standard amine chemistry. Recombinant human APRIL (R&D Systems) binding to and dissociation from the biosensors was then observed at two concentrations, 1 and 2 μg/ml. Specifically, amine-reactive biosensors were pre-wetted by immersing them in wells containing 0.1M MES pH=5 for 2 minutes. The biosensors were then activated using a 0.1M NHS/0.4M EDC mixture for 5 minutes. hAPRIL.01A and hAPRIL.03A antibodies were coupled by immersing the biosensors in a solution of 5 μg/mL of the antibody for 18 minutes. The biosensor surface was quenched using a solution of 1M ethanolamine pH 8.5 for 7 minutes. Biosensors were equilibrated in PBS for 5 minutes. […] Dissociation was measured after transfer of the biosensors into PBS and monitoring of the interferometry signal for 20 minutes. The observed on and off rates (kobs and kd) were fit using a 1:1 binding global fit model, and the equilibrium binding constant KD was calculated (see Table 1).

Assay [7] addresses T2, FLAG-hAPRIL (secreted form, supernatant …). Put plainly: blocking ELISA, FLAG-hAPRIL pre-incubated with titrated antibody, binding to coated TACI-Fc detected with anti-FLAG. Here is the method: as §1
The target of assay [8] is T3, Recombinant human APRIL (R&D Systems). Put plainly: bio-light interferometry (Octet), antibody amine-coupled to the biosensor, APRIL at 1 and 2 µg/ml, 1:1 global fit; column printed as kobs. The procedure:
as §2

Assay [9] deals with T2, FLAG-hAPRIL (secreted form, supernatant …). Put plainly: blocking ELISA, FLAG-APRIL supernatant pre-mixed with titrated antibody, binding to BCMA-Fc coated at 1 µg/ml detected with anti-Flag-HRP [left graph]. The procedure: (§3) To study whether the blocking characteristics of hAPRIL.01A and hAPRIL.03A are unique, all known commercially available anti-APRIL antibodies were tested for their ability to block the interaction of FLAG-hAPRIL to BCMA-Fc and TACI-Fc (FIGS. 3A and 3B). Blockade of receptor binding was studied using an ELISA. An ELISA plate was coated with 50 with 100 μl of BCMA-Fc at 1 μg/ml or with 100 μl of TACI-Fc at a concentration of 2 μg/ml in coating buffer and incubated overnight at 4° C. The plate was then washed with PBS/0.2% Tween and then incubated with for 1 hour at 37° C. with 100 μl PBS/5% BSA per well. The plate was then washed four times with PBS/0.2% Tween. In a separate plate APRIL monoclonal antibodies were pre-mixed with APRIL supernatant and incubated for 30 minutes on ice. Conditioned medium containing soluble APRIL was diluted 1 in 4 and mixed with an equal volume of PBS containing the antibodies titrated in doubling dilutions starting with 5 μg/ml. 100 μl of the pre-incubated mix was transferred to the ELISA plate and incubated for 2 hours at 37° C. The plate was then washed four times with PBS/0.2% Tween. Anti-Flag-HRP antibody was then diluted in PBS at a concentration of 1:1000 and then 100 μl of this added to each well and incubated for 1 hour at 37° C. […] The colour was allowed to develop and then the OD at 405 nm read on an ELISA plate reader. […]

Assay [10] shares this target. Put plainly: blocking ELISA, FLAG-APRIL supernatant pre-mixed with titrated antibody, binding to BCMA-Fc coated at 1 µg/ml detected with anti-Flag-HRP [right graph]. Here is the method: as §3
For assay [11] the target is unchanged. Put plainly: blocking ELISA, FLAG-APRIL supernatant pre-mixed with titrated antibody, binding to coated TACI-Fc (sheet: coated at 1 µg/ml) detected with anti-Flag-HRP [left graph]. The procedure:
(§4) To study whether the blocking characteristics of hAPRIL.01A and hAPRIL.03A are unique, all known commercially available anti-APRIL antibodies were tested for their ability to block the interaction of FLAG-hAPRIL to BCMA-Fc and TACI-Fc (FIGS. 3A and 3B). Blockade of receptor binding was studied using an ELISA. […] The plate was then washed with PBS/0.2% Tween and then incubated with for 1 hour at 37° C. with 100 μl PBS/5% BSA per well. The plate was then washed four times with PBS/0.2% Tween. In a separate plate APRIL monoclonal antibodies were pre-mixed with APRIL supernatant and incubated for 30 minutes on ice. Conditioned medium containing soluble APRIL was diluted 1 in 4 and mixed with an equal volume of PBS containing the antibodies titrated in doubling dilutions starting with 5 μg/ml. 100 μl of the pre-incubated mix was transferred to the ELISA plate and incubated for 2 hours at 37° C. The plate was then washed four times with PBS/0.2% Tween. Anti-Flag-HRP antibody was then diluted in PBS at a concentration of 1:1000 and then 100 μl of this added to each well and incubated for 1 hour at 37° C. The plate was then washed four times with PBS/0.2% Tween and then 100 μl of ABTS added to each well (the ABTS was diluted to the ratio 10 ml of reagent plus 5 μl of H₂O₂ made immediately before addition). The colour was allowed to develop and then the OD at 405 nm read on an ELISA plate reader. […]

The target is the same in assay [12]. Put plainly: blocking ELISA, FLAG-APRIL supernatant pre-mixed with titrated antibody, binding to coated TACI-Fc (sheet: coated at 1 µg/ml) detected with anti-Flag-HRP [right graph]. Here is the method:
as §4

For the molecule “mouse anti-hAPRIL IgG1 Aprily-5 (Alexis) (antibody)”, the EC50 in assay [1] stood at 1.7 nM.

B1: hAPRIL.01A (antibody, IgG1, V domains shown)
VH: EVQLQQSGPELVKPGASVKMSCKASGYTFTSYVMHWVKQKPGQGLEWIGYINPYNDAPKYNEKFKGKATVTSDKSSGTAYMELSSLTSEDSAVYYCARGLGYALYYAMDYWGQGTSVTVSS
VL: DIVMTQSQKFKSTSVGDRVSVTCKASQNVGNNVAWYQQKAGQSPKALISSASNRDSGVPDRFTGSGSGTDFTLTISNVQSEDLADYFCQQYNIYPFTFGSGTELEIK
notes: Mouse antibody from a hybridoma, IgG1, kappa
Consider B1, for which, in assay [2], the binding result was “no binding”. The EC50 in assay [3] worked out at 2.2 nM. The IC50 in [4] was 1.2 nM; in assay [5], 0.4 nM. Besides, the Kd in assay [6] stood at 0.753 nM. In addition, the koff in assay [6] worked out at 3.69e-05 s⁻¹. Besides, the “IC50 (read off the curve)” value in assay [7] is approximately 0.2 µg/mL; in assay [9], approximately 0.8 µg/mL; in assay [10] it was approximately 0.9 µg/mL; in assay [11], approximately 0.7 µg/mL; in assay [12], approximately 0.7 µg/mL. For the same molecule, the association rate constant (kon) in assay [8] was 48900 M⁻¹ s⁻¹.
